Data from PMC10854676, “The Impact of Lens Epithelium-Derived Growth Factor p75 Dimerization on Its Tethering Function” (Cells, 2024).
Residue numbers refer to the chain shown, from its start. Names may count otherwise.

B1: His6-LEDGF_(1–426) (domain or fragment)
chain: not shown
notes: LEDGF/p75 residues 1-426 (lacks the C-term with the α6-helix); elsewhere LEDGF1-426 is Flag-tagged; source: E. coli BL21(DE3)pLysS, purified (Ni-NTA, heparin); not shown: His6, N-terminal, kept
B2: MLL1_(1–160)-GST (domain or fragment, UniProt Q03164 1-160, looked up)
chain: MAHSCRWRFPARPGTTGGGGGGGRRGLGGAPRQRVPALLLPPGPPVGGGGPGAPPSPPAVAAAAAAAGSSGAGVPGGAAAASAASSSSASSSSSSSSSASSGPALLRVGPGFDAALQVSAAIGTNLRRFRAVFGESGGGGGSGEDEQFLGFGSDEEVRVR
notes: MLL1 residues 1-160; also called MLL1_(1–160) fragment; not shown: GST, C-terminal, kept
B3: His6-LEDGF_(345–530) (domain or fragment, UniProt O75475 345-530, looked up)
chain: ETSMDSRLQRIHAEIKNSLKIDNLDVNRCIEALDELASLQVTMQQAQKHTEMITTLKKIRRFKVSQVIMEKSTMLYNKFKNMFLVGEGDSVITQVLNKSLAEQRQHEEANKTKDQGKKGPNKKLEKEQTGSKTLNGGSDAQDGNQPQHNGESNEDSKDNHEASTKKKPSSEERETEISLKDSTLDN
notes: the plasmid has a TEV site after the His tag, a cleavage is not reported; source: E. coli BL21(DE3)pLysS, purified (Ni-NTA, heparin); not shown: His6, N-terminal, kept
B4: His6-LEDGF_(345–530) N454A-K455A (domain or fragment, UniProt O75475 345-530, looked up)
chain: B3 chain with N110A, K111A
notes: source: E. coli BL21(DE3)pLysS, purified (Ni-NTA, heparin); not shown: His6, N-terminal, kept
B5: His6-LEDGF_(345–530) E451A (domain or fragment, UniProt O75475 345-530, looked up)
chain: B3 chain with E107A
notes: as for B4
B6: MBP-LEDGF_(325–426) (domain or fragment, UniProt O75475 325-426, looked up)
chain: EQQNKDEGKKPEVKKVEKKRETSMDSRLQRIHAEIKNSLKIDNLDVNRCIEALDELASLQVTMQQAQKHTEMITTLKKIRRFKVSQVIMEKSTMLYNKFKNM
notes: source: E. coli BL21(DE3)pLysS, purified (amylose resin); not shown: MBP, N-terminal, kept
B7: His6-LEDGF/p52 (natural protein)
chain: not shown
notes: lacks the IBD and C-term; also called His6-tagged LEDGF/p52; source: E. coli BL21(DE3)pLysS, purified (Ni-NTA, heparin); not shown: His6, N-terminal, kept
B8: Flag-LEDGF/p75 E451R-E452R (natural protein)
chain: not shown
notes: LEDGF/p75 with two reverse-charge mutations in the α6-helix; source: E. coli BL21(DE3)pLysS, purified (heparin column, Superdex 75); not shown: Flag, N-terminal, kept

How the values were obtained:
Settings in all cases: both partners purified
Flag-LEDGF/p75 WT [1] = biological target: T1, Flag-LEDGF/p75 WT (UniProt O75475 1-530); assay: AlphaScreen or HTRF; competition: 150 nM GST-LEDGF/p75 and 150 nM Flag-LEDGF/p75 outcompeted by increasing concentrations of a third LEDGF construct; apparent IC50
T1 construct: LEDGF/p75, aa 1-530, from the pCp-NAT-3xFlag-LEDGF WT construct; also called Flag-tagged LEDGF/p75; Flag-LEDGF_(1–530); source: E. coli BL21(DE3)pLysS, purified (heparin column, Superdex 75); not shown: 3xFlag, N-terminal, kept

Flag-LEDGF_(1–426) = biological target: T2, Flag-LEDGF_(1–426) (UniProt O75475 1-426); assay: AlphaScreen or HTRF; direct titration or cross-titration of two differently tagged proteins at nanomolar concentrations (one partner fixed at 100-350 nM); no nuclease; protein batches held DNA at 2 µg/mL or lower
T2 construct: LEDGF/p75 residues 1-426, truncation missing the complete C-term including the α6-helix; source: E. coli BL21(DE3)pLysS, purified (heparin column, Superdex 75); not shown: Flag, N-terminal, kept

[2] = biological target: B8; assay: as above
Flag-LEDGF/p75 WT [3] = biological target: T1, Flag-LEDGF/p75 WT; assay: as above
His6-LEDGF_(345–530) = biological target: B3; assay: as above
GST-LEDGF/p75 = biological target: T3, GST-LEDGF/p75 (UniProt O75475 1-530); assay: as above
T3 construct: LEDGF/p75 (lens epithelium-derived growth factor p75), aa 1-530, expressed from pGEX-p75; also called GST-tagged LEDGF/p75; full-length GST-tagged LEDGF/p75; source: E. coli BL21(DE3)pLysS, purified as described before [24]; not shown: GST, N-terminal, kept

| Binder | IC50 (Flag-LEDGF/p75 WT [1]) | binding result (Flag-LEDGF_(1–426)) | binding result (Flag-LEDGF/p75 WT [3]) | further results |
| --- | --- | --- | --- | --- |
| B1 | 65.5 nM |  |  |  |
| B2 |  | binds | binds | binding result [2]: binds |
| B3 | 222 nM |  |  | fold stronger binding than the mutants E451A and N454A-K455A (Flag-LEDGF_(1–426)): ~2 fold |
| B4 |  | binds | binds |  |
| B5 |  | binds | binds |  |
| B6 |  |  |  | binding result (His6-LEDGF_(345–530)): binds |
| B7 | 12.2 nM |  |  |  |
| B8 |  |  |  | binding result (GST-LEDGF/p75): binds |
